Assay [1] addresses T1, gD tagged human FcRH6 on SVT2 cells (human, UniProt Q6DN72 20-434).
T1 construct: whole, on cells; also called huFcRH6; not shown: gD tag; the construct for this FcRH is not described
T1 sequence (looked up): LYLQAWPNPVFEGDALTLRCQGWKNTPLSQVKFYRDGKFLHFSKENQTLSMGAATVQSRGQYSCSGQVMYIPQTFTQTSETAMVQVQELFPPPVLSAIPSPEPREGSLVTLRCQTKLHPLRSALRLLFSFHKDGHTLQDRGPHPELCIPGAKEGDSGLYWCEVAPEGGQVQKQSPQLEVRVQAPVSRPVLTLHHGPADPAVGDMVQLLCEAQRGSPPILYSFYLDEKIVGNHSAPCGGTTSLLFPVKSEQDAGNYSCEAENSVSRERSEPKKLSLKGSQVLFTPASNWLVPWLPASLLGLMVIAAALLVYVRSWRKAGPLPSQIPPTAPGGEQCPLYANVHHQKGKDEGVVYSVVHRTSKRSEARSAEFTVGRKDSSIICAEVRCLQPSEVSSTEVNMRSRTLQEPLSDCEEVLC
The assay is described as follows: FACS, SVT2.MSCV.gD.FcRH6 cells, PE secondary antibody.

For assay [2], the target named is T2, cynomolgus FcRH5 on stably transfected SVT2 cells (cynomologous monkey).
T2 construct: also called cyno FcRH5; cynoFcRH5
T2 chain: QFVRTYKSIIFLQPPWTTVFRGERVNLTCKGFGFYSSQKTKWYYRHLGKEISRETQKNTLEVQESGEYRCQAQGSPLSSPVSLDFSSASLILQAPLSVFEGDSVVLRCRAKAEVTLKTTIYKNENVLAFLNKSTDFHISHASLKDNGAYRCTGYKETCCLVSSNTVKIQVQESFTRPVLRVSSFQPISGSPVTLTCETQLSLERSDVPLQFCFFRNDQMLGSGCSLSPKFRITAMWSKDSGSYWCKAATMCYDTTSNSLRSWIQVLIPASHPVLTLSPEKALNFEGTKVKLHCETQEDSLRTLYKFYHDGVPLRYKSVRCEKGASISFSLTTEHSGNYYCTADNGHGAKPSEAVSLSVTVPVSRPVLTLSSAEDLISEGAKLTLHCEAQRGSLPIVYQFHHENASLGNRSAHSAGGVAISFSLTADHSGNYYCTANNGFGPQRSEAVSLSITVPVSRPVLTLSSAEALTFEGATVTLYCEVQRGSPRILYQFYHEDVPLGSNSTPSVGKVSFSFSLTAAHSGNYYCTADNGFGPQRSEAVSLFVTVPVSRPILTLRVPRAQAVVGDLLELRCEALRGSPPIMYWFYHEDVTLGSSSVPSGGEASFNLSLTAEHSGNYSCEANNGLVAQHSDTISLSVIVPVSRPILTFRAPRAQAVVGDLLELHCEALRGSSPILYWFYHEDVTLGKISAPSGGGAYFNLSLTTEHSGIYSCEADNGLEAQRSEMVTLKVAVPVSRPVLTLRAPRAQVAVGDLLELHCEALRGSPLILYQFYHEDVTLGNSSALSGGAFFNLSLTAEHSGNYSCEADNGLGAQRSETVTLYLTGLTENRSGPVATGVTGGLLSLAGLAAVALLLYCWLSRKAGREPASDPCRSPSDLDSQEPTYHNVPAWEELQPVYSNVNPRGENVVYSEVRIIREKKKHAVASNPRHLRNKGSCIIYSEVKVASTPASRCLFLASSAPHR
The assay is described as follows: Scatchard analysis: 0.5 nM 125I-labeled antibody competed with the unlabeled antibody (50 to 0.02 nM) on SVT2.cyFcRH5 cells, 4 h at 4 C; St. Error 0.064. As for the experimental part:
To further determine binding of the FcRH5 murine antibodies and IgG clones, binding of iodinated IgG variants to OPM2 cells expressing human FcRH5 and SVT2 cells expressing cynomologous FcRH5, Scatchard analysis was performed (Table 9A).
For Scatchard analysis, 0.5 nM I¹²⁵ labeled murine or IgG clone anti-FcRH5 was competed against unlabeled murine or IgG clone anti-FcRH5, respectively, ranging from 50 to 0.02 nM (12 step 1:2 serial dilution) in the presence of a transfected OPM2 line stably expressing human-FcRH5 and a transfected SVT2 line stably expressing cynomologous-FcRH5. After a four hour incubation at 4° C., cells were washed and cell pellet counts were read by a gamma counter (1470 WIZARD Automatic Gamma Counter; Perkin Elmer, Walthem, Mass.). All points were done in triplicate and counted for 10 minutes. The average CPM was used for Kd calculation using the New Ligand (Genentech, South San Francisco, Calif.) program.

In assay [3] the target is T3, human FcRH5 on stably transfected cells (BJAB.huFcRH5, OPM2.huFcRH5) (human, UniProt Q96RD9 16-977).
T3 construct: also called BJAB-FcRH5; OPM2-FcRH5
T3 chain: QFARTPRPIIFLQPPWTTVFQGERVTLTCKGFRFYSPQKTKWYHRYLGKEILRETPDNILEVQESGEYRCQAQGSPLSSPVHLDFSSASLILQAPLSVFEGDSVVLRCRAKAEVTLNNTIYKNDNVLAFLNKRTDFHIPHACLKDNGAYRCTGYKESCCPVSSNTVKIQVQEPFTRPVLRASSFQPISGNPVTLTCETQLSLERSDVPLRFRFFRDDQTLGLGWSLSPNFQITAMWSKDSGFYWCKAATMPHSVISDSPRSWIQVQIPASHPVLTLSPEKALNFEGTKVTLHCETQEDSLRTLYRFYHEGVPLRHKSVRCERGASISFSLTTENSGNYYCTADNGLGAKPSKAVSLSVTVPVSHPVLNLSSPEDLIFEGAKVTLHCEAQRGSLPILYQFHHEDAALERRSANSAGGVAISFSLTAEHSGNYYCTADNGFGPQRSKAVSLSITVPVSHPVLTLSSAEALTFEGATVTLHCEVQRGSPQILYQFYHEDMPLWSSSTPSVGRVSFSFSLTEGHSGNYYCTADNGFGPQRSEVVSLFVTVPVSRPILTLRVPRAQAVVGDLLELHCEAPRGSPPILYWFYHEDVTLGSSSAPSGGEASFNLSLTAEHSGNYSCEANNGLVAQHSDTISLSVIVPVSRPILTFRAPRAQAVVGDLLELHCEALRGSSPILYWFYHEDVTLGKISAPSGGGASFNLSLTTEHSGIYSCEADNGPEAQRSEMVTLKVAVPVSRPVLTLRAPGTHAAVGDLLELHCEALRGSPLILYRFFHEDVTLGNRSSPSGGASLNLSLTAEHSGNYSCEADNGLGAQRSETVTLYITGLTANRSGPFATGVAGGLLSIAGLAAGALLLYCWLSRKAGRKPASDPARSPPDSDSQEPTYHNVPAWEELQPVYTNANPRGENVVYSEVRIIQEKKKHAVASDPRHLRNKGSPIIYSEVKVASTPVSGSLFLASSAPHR
The assay can be described thus: Scatchard analysis: 0.5 nM 125I-labeled antibody competed with the unlabeled antibody (50 to 0.02 nM) on BJAB.huFcRH5 cells, 4 h at 4 C; St. Error 0.007.

Our source for the binding result and Kd values is patent publication US20130089497A1 (Genentech, published 2013).

B1: murine monoclonal antibody anti-FcRH5-13G9 (antibody, V domains shown)
VH: EVQLVQSGPELKKPGETVKISCKASGYTFTNYGMNWVKQAPGKGLKWMGWVNTYTGEPTYTDDFKGRFAFSVETSASTVFLQINNLKNEDTATYFCARRSIPYYYAMDYWGQGTSLT
VL: DIVMTQSQKIMSTSVGDRVNVTCKASQNVGSNVAWYHQKPGQSPKALIYSASYRYSGVPDRFTGSGSGTDFTLTISNVQSEDLAEYFCQQYKTWTFGGGTKLEIKR
notes: Whole murine IgG from hybridoma; also called 13G9.1.1; mu13G9
As for B1, in assay [1], the binding result was “no binding (tested: 1.0 ug per about 10^6 cells (p-1120))”. The Kd in assay [2] was found to be 0.54 nM; in assay [3], 0.13 nM.
